B1: WIC 3: recombinant type I wheat GST, SEQ ID No. 7, amino acid SEQ ID No. 8; coding sequence identical in WIC 7 and WIC 8 (protein)
chain: MAPVKLYGATLSWNVTRCVAALEEAGVQYEIVPINFGTGEHKSPDHLARNPFGQVPALQDGDLYVFESRAICKYACRKNKPELLKEGDIKESAMVDVWLEVEAHQYTAALSPILFECLIHPMLGGATDQKVIDDNLVKIKNVLAVYEAHLSKSKYLAGDFLSLADLNHVSVTLCLAATPYASLFDAYPHVKAWWTDLLARPSVQKVAALMKP
modifications: Triticum aestivum L.
B2: WIC 5: recombinant type I wheat GST, SEQ ID No. 9, amino acid SEQ ID No. 10 (protein)
chain: MAPIKLYGMMLSANVTRVTTLLNELGLEFDFVDVDLRTGAHKHPDFLKLNPFGQIPALQDGDEVVFESRAINRYIATKYGASLLPTPSAKLEAWLEVESHHFYPPARTLVYELVIKPMLGAPTDAAEVDKNAADLAKLLDVYEAHLAAGNKYLAGDAFPLADANHMSYLFMLTKSPKADLVASRPHVKAWWEEISARPAWAKTVASIPLPPAV
modifications: Triticum aestivum L.
B3: WIC 4: recombinant type I wheat GST, SEQ ID No. 11, amino acid SEQ ID No. 12; coding sequence identical in WIC 10 (protein)
chain: MAPVKVFGPAMSTNVARVLVCLEEVGAEYEVVDIDFKAMEHKSPEHLVRNPFGQIPAFQDGDLLLFESRAIARYVLRKYKKNEVDLLREGDLKEAAMVDVWTEVDAHTYNPAISPIVYECSSTAHARLPTNQTVVDESLEKLKNVLEVYEARLSKHDYLAGDFVSFADLNHFPYTFYFMATPHAALFDSYPHVKAWWERIMARPAVKKLAAQMVPKKP
modifications: Triticum aestivum L.
B4: WIC 2: recombinant type I wheat GST, SEQ ID No. 5, amino acid SEQ ID No. 6 (protein)
chain: MAPAVKVYGWAVSPFVARPLLCLEEAGVEYELVSMSRAAGDHRQPDFLARNPFGQVPVLEDGDLTLFESRAIARHVLRKHKPELLGCGSPEAEAMVDVWLEVEAHQYNPAASAIVVQCIILPLLGGARDQAVVDENVAKLKKVLEVYEARLSASRYLAGDDISLADLSHFPFTRYFMETEYAPLVAELPHVNAWWEGLKARPAARKVTELMPPDLGLGKKAE
modifications: Triticum aestivum L.
B5: Triticum aestivum GST 1 subunit (25 kDa) (enzyme)
chain: MAGEKGLVLLDFWVSPFGQRVRIALAEKGLPYEYAEEDLMAGKSDRLLRANPVHKKIPVLLHDGRAVNESLIILQYLEEAFPDAPALLPSDPYARAQARFWADYVDKKVYDCGSRLWKLKGEPQAQARAEMLDILKTLDGALGDKPFFGGDKFGFVDAAFAPFTAWFHSYERYGEFSLPEVAPKIAAWAKRCGERESVAKSLYSPDKVYDFIGLLKKKYGIE
notes: Native subunit in wheat shoot extracts; also called TaGST1

Tested on in one data set: not listed separately
The data set is described as follows: GST activity toward herbicide fenoxaprop-ethyl (HPLC-based assay). It is filed as biochemical. To be noted: recombinant wheat GST expressed in E. coli, affinity purified; ± standard error. The protocol: (§1) The purified isoenzymes were assayed for GST activity toward herbicides using the HPLC-based assays described by Edwards R. and Cole D. J. (Pesticide Biochemistry and Physiology Vol. 54, pp96-104 (1996)) and the results are presented in Table 2. […] These isoenzymes had additional activities as glutathione peroxidases able to reduce linoleic acid hydroperoxide, a major reaction product formed during membrane peroxidation in plants (Williamson and Beverly. J. Cereal Sci. 8, 1988, 155-163).
(§2) To assay the recombinant fusion proteins for GST activity, the E. coli were grown in the presence of IPTG and then pelleted by centrifugation. The bacteria were then lysed by sonication and the protein precipitated using 80% ammonium sulphate. After resuspension and desalting, GSTs were purified by affinity chromatography. The WIC 3 fusion protein was purified using sulphobromophthalein-S-glutathione affinity chromatography (Mozer et al. Biochem. 22, 1983, 1068-1072) while the other WIC fusion proteins were purified using glutathione-agarose (Mannervik and Guthenberg. Methods Enzymol. 77 1981, 231-235).The purified enzymes were then assayed for GST activities toward herbicides (Table 3) and GST activities toward non-herbicide substrates and glutathione peroxidase activities toward organic hydroperoxides (Table 4).
(§3) A polyclonal antiserum was raised in a rabbit to a mixture of TaGST1-2 and TaGST1-3. When tested against crude extracts from safener-treated wheat shoots the antiserum recognised both the 25 kDa TaGST1 subunit and the 26 kDa safener-inducible TaGST2 and TaGST3 subunits. The antiserum was then used in conjunction with the antiserum raised to TaGST1-1 to immuno screen the cDNA library prepared from fenchlorazole ethyl treated wheat shoots as described in example 1. Duplicate lifts were taken from the plated out library and the first blot screened with the antiserum raised against TaGST1-2 and TaGST1-3. The second blot was screened with the antiserum raised to TaGST1-1. Five plaques were identified from the first blot which were absent from the second blot corresponding to cDNAs encoding TaGST2 or TaGST3 like polypeptides and theses clones were purified and the respective plasmids sequenced. […] The other three clones ICC. ICP and ICV had identical DNA sequences (SEQ ID No. 17) and predicted amino acid sequence (SEQ ID No. 18). GST ICJ was sub-cloned into the pET 11a vector after using PCR to introduce a Nde 1 restriction site into the translation start site, using the primer 5′ AGGTAGTTACATATGGCCGGAGGA 3′ (SEQ ID No. 19) in the amplification. following sub-cloning, the sequence of GST ICJ was re-checked to ensure no PCR induced errors had been introduced. The recombinant GST ICJ was then expressed in E. coli and purified by S-hexylglutathione affinity chromatography. The purified GST ICJ was assayed for activities as a GST (Table 3) and as a glutathione peroxidase (Table 4). […] GST ICV was finally expressed as the respective beta-galactosidase fusion protein using the Bluescript plasmid and assayed for GST activity (Table 3 ) and glutathione peroxidase activity (Table 4) in crude bacterial lysates. The specific activity of GST ICV toward these substrates was then calculated by I) subtracting the low levels of GST and GPOX activity present due the endogenous activities in the E. coli and ii) determining the proportion of protein in the lysate present as recombinant GST ICV from SDS-PAGE analysis, by densitometry analysis of polypeptides stained with Coomassie blue.
As for B1, the “GST activity toward fenoxaprop-ethyl” value worked out at 0.093 ± 0.002 nkat.mg^−1.
For the molecule B2, the “GST activity toward fenoxaprop-ethyl” value is listed as 0.067 ± 0.003 nkat.mg^−1.
Consider B3, for which the “GST activity toward fenoxaprop-ethyl” value is 0.012 ± 0.001 nkat.mg^−1.
Same read-out and setting: in the case of B4 it was 0.085 ± 0.002 nkat.mg^−1.

Another data set concerns the molecule itself. Kind of data set: subunit composition of purified isoenzymes (anion exchange, reversed-phase HPLC, SDS-PAGE).
Details: not given
The protocol: The component polypeptides in the active fractions were then analysed by silver staining after resolution by sodium dodecyl sulphate polyacrylamide gel electrophoresis (SDS-PAGE). It was concluded that in fenchlorazole-ethyl-treated wheat the polar GSTs were composed of 25 kDa and 26 kDa polypeptides, while the hydrophobic fraction contained 25 kDa, 26 kDa and 24 kDa polypeptides. Further analysis by reversed-phase HPLC confirmed the subunit compositions (FIG. 2). Based on the combined analyses by Q-sepharose, HPLC and SDS-PAGE these GST polypeptides were named as described in Table 1, which also contains details of how these subunits associate together to form the active dimers found in plants and the relative abundance of these subunits in extracts from unsafened and fenchlorazole-ethyl treated (safened) plants.
In the case of B5, the binding result is “binds”.

Tested on in another data set: not listed separately
The data set is described as follows: Glutathione peroxidase activity toward cumene hydroperoxide. The data set is classed as biochemical. The note with it: recombinant wheat GST, affinity purified; ± standard error (n = 3). The protocol:
as §2, §3
As to B1, the “Glutathione peroxidase activity toward cumene hydroperoxide” value is 1.4 ± 0.3 absorbance change at 340 nm.mg^−1.
Still for that read-out and setting: in the case of B2 it was 1.3 ± 0.2 absorbance change at 340 nm.mg^−1; in that of B3, 6.2 ± 0.3 absorbance change at 340 nm.mg^−1.
The same measure, in the same setting: for B4 the value was 28.2 ± 1.7 absorbance change at 340 nm.mg^−1.

Tested on in another data set: not listed separately
The data set is described as follows: GST activity toward CDNB. The data set is classed as biochemical. The note with it: recombinant wheat GST expressed in E. coli, affinity purified. The protocol:
as §1
To confirm that TaGST1 encoded a GST, it was expressed as a fusion protein with beta-galactosidase using the pBluescript plasmid in E. coli strain SOLR. TaGST1 clones were inoculated into LB liquid medium and were grown overnight at 37/C on all orbital shaker in the presence of IPTG. Bacteria were then pelleted by centrifugation, lysed by sonication and assayed for GST activity toward CDNB and analysed by SDS-PAGE and Western blotting using the anti-TaGSTI-I serum. With all six TaGST1 clones, GST activity toward CDNB could be determined in the crude extracts in the range 30-50 nkat/mg crude lysate.
as §2
as §3, with “The specific activity of GST ICV toward these substrates was then calculated by I) subtracting the low levels of GST and GPOX activity present due the endogenous activities in the E. coli and ii) determining the proportion of protein in the lysate present as recombinant GST ICV from SDS-PAGE analysis, by densitometry analysis of polypeptides stained with Coomassie blue.” left out
Turning to B1, the “GST activity toward CDNB” value is listed as 2,519 nkat.mg^−1.
Turning to B2, the “GST activity toward CDNB” value was determined as 174 nkat.mg^−1.
For B3, the “GST activity toward CDNB” value stood at 980 nkat.mg^−1.
The same measure, in the same setting: in the case of B4 it was 187 nkat.mg^−1.

Tested on in the next data set: not listed separately
The data set is described as follows: GST activity toward crotonaldehyde. The data set is classed as biochemical. To be noted: recombinant wheat GST, affinity purified; ± standard error. The protocol:
as §2
As to B1, the “GST activity toward crotonaldehyde” value is on record as 6.3 ± 0.9 nkat.mg^−1.
Still for that read-out and setting: for B2 the value was 4.5 ± 0.5 nkat.mg^−1; for B3, 5.5 ± 0.6 nkat.mg^−1.
For the molecule B4, the “GST activity toward crotonaldehyde” value was determined as 5.5 ± 1.3 nkat.mg^−1.

Tested on in a further data set: not listed separately
Kind of data set: GST activity toward ethacrynic acid. The data set is classed as biochemical. The note with it: recombinant wheat GST, affinity purified; ± standard error; N.D = not detected. Here is the method: as §2
For the molecule B3, the “GST activity toward ethacrynic acid” value is listed as 1.4 ± 0.3 nkat.mg^−1.

Tested on in a further data set: not listed separately
The data set is described as follows: GST activity toward herbicide metolachlor (HPLC-based assay). The data set is classed as biochemical. To be noted: recombinant wheat GST expressed in E. coli, affinity purified; ± standard error. The protocol: as §1, §2, §3
With B1, the “GST activity toward metolachlor” value is reported as 0.053 ± 0.004 nkat.mg^−1.
Consider B2, for which the “GST activity toward metolachlor” value came to 0.040 ± 0.004 nkat.mg^−1.
On the same count and under the same terms, for B3 the value was 0.037 ± 0.003 nkat.mg^−1; for B4, 0.512 ± 0.04 nkat.mg^−1.

Tested on in another data set: not listed separately
Kind of data set: GST activity toward benzyl isothiocyanate. The data set is classed as biochemical. To be noted: recombinant wheat GST, affinity purified; ± standard error. The protocol:
as §2
For B1, the “GST activity toward benzyl isothiocyanate” value was determined as 9.0 ± 0.5 nkat.mg^−1.
As for B2, the “GST activity toward benzyl isothiocyanate” value is recorded as 9.4 ± 2.0 nkat.mg^−1.
The same measure, in the same setting: for B3 the value was 4.2 ± 0.4 nkat.mg^−1; for B4, 33.3 ± 4.5 nkat.mg^−1.

Tested on in a further data set: not listed separately
The data set is described as follows: GST activity toward herbicide fluorodifen (HPLC-based assay). To be noted: recombinant wheat GST expressed in E. coli, affinity purified; ± standard error. The data set is classed as biochemical. The protocol: as §1, §2, §3
As for B1, the “GST activity toward fluorodifen” value was determined as 0.014 ± 0.006 nkat.mg^−1.
Take B2: the “GST activity toward fluorodifen” value was determined as 0.030 ± 0.002 nkat.mg^−1.
With B3, the “GST activity toward fluorodifen” value was found to be 0.036 ± 0.004 nkat.mg^−1.
Consider B4, for which the “GST activity toward fluorodifen” value is on record as 0.096 ± 0.002 nkat.mg^−1.

The values above are taken from patent US6730828B1, “Isolated nucleic acids encoding a wheat glutathione transferase, plants transformed therewith and methods of use thereof” (Aventis Agriculture Limited, priority 1997, dated 2004).
